Article PMC3017872

Legend:
[1] = target: Fcε receptors expressed on the surface of U937 monocytic cells (human (endogenous in U937)); assay: flow cytometry on cells
[2] = target: recombinant IgE receptor FcεRI alpha (sFcεRIα) (UniProt P12319); assay: SPR
UniProt P12319, sequence (P12319 26-205): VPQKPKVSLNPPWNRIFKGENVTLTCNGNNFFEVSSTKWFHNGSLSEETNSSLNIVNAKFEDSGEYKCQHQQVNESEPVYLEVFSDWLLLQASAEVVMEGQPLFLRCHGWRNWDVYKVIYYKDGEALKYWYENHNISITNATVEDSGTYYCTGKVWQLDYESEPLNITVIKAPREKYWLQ

| percent of cells bound [1] [%] | koff [2] [s⁻¹] | kon [2] [M⁻¹ s⁻¹] | Substance |
| --- | --- | --- | --- |
| 60.6 |  |  | chimaeric MOv18 IgE antibody against the ovarian cancer antigen FBP |
|  | 2.6e-05 | 230000 | chimaeric antibody NIP IgE |
